Data published in article PMC8429893, “CTP regulates membrane-binding activity of the nucleoid occlusion protein Noc” (Molecular Cell, 2021).

Legend:
[1] = biological target: Geobacillus thermoleovorans NocNΔ26ΔCTD (Geobacillus thermoleovorans); experiment: crystal structure; G. thermoleovorans NocNΔ26ΔCTD, premixed with 1 mM CTPγS and 1 mM MgCl2 (no nucleotide in the density), 2.95 Å, space group C222(1), one copy per asymmetric unit; dimer with a symmetry mate
[2] = biological target: T1, Noc (nucleoid occlusion protein) (Bacillus subtilis, UniProt P37524); experiment: ITC; format: binding
T1 construct: B. subtilis Noc (WT), His6-tagged

Noc (N121S) [3] = biological target: T2, Noc (N121S) (Bacillus subtilis, UniProt P37524, N121S); experiment: ITC; format: binding
T2 construct: B. subtilis Noc (N121S), His6-tagged

[4] = biological target: the molecule itself; experiment: cross-linking; BMOE (1 mM) cysteine crosslinking of 10 uM Noc variant ± 1 mM NTP ± 1 uM 22 bp NBS/parS DNA; 10 mM Tris-HCl pH 7.4, 200 mM NaCl, 1 mM MgCl2; 10 min at 22°C; SDS-PAGE, Coomassie, band quantification; reads self-engagement of the N-terminal domain
Noc (R89A) = biological target: T3, Noc (R89A) (Bacillus subtilis, UniProt P37524 1-283, R89A); experiment: BLI; 1 mM CTP; nucleates, does not spread; BLI: 100 mM Tris-HCl pH 8.0, 150 mM NaCl, 1 mM MgCl2, 0.005% Tween 20, 22 C; 1 uM Noc dimer +/- 1 mM NTP; settings: protein: recombinant; tags: C-terminal His6; chain copies: 2; label: biotin on both ends; blunt
T3 sequence: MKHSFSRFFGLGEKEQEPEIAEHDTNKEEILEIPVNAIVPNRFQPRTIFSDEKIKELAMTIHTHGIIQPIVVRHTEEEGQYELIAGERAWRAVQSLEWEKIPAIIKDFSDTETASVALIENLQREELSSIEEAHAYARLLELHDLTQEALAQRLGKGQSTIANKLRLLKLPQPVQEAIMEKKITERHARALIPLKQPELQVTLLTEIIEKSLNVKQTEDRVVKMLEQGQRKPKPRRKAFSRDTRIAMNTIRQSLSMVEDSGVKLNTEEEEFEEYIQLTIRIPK

Noc (N121S) [5] = biological target: T4, Noc (N121S) (Bacillus subtilis, UniProt P37524 1-283, N121S); experiment: as above; settings: protein: recombinant; tags: C-terminal His6; chain copies: 2; label: biotin on both ends; blunt
T4 sequence: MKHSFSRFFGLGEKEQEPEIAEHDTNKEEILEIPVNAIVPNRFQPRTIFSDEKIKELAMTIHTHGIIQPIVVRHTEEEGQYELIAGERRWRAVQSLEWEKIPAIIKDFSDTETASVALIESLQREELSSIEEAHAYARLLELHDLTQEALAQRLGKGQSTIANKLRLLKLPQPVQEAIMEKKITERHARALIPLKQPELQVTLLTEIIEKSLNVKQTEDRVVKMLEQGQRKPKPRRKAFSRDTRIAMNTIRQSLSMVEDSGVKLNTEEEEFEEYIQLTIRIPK

Noc [6] = biological target: T5, Noc (Bacillus subtilis, UniProt P37524 1-283); experiment: BLI; 1 mM CTP; BLI: 100 mM Tris-HCl pH 8.0, 150 mM NaCl, 1 mM MgCl2, 0.005% Tween 20, 22 C; 1 uM Noc dimer +/- 1 mM NTP; settings: protein: recombinant; tags: C-terminal His6; chain copies: 2; label: biotin on both ends; blunt
T5 sequence: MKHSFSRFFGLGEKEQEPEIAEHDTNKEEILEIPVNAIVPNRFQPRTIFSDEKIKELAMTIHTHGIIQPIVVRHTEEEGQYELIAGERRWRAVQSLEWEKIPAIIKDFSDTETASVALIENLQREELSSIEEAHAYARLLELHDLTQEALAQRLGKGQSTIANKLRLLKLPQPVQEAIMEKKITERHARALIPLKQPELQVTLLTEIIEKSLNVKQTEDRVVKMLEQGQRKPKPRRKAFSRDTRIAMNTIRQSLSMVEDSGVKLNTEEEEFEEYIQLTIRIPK

Noc [7] = biological target: T5, Noc; experiment: BLI; 1 mM CTP; no increase beyond nucleation; BLI: 100 mM Tris-HCl pH 8.0, 150 mM NaCl, 1 mM MgCl2, 0.005% Tween 20, 22 C; 1 uM Noc dimer +/- 1 mM NTP; settings: protein: recombinant; tags: C-terminal His6; chain copies: 2; label: biotin at M13F end; 5' overhang 4 nt (GATC) at BamHI end
Noc [8] = biological target: T5, Noc; experiment: BLI; 1 uM Noc; 1 mM CTP; BLI: 100 mM Tris-HCl pH 8.0, 150 mM NaCl, 1 mM MgCl2, 0.005% Tween 20, 22 C; 1 uM Noc dimer +/- 1 mM NTP; settings: protein: recombinant; tags: C-terminal His6; chain copies: 2; label: biotin on both ends; blunt

Molecule: Geobacillus thermoleovorans NocNΔ26ΔCTD (domain or fragment)
- stoichiometry N [1]: 2

Molecule: Nc1ccn([C@@H]2O[C@H](COP(=O)(O)OP(=O)(O)OP(O)(O)=S)[C@@H](O)[C@H]2O)c(=O)n1 [CTPɣS]
- Kd [2]: 68 ± 23 µM
- Kd (Noc (N121S) [3]): 232 ± 66 µM

B1: B. subtilis NocNΔ10 (E29C) (domain or fragment, Bacillus subtilis, UniProt P37524 11-283, looked up)
chain: LGEKEQEPEIAEHDTNKECILEIPVNAIVPNRFQPRTIFSDEKIKELAMTIHTHGIIQPIVVRHTEEEGQYELIAGERRWRAVQSLEWEKIPAIIKDFSDTETASVALIENLQREELSSIEEAHAYARLLELHDLTQEALAQRLGKGQSTIANKLRLLKLPQPVQEAIMEKKITERHARALIPLKQPELQVTLLTEIIEKSLNVKQTEDRVVKMLEQGQRKPKPRRKAFSRDTRIAMNTIRQSLSMVEDSGVKLNTEEEEFEEYIQLTIRIPK
- binding result [4]: binds

B2: 170 bp NBS DNA, closed (dsDNA)
DNA 1: CGCCAGGGTTTTCCCAGTCACGACGTTGTAAAACGACGGCCAGAATTCGCAACGTGTATTTCCCGGGAAATAGCCTTGAACTGATAACGACTCTATCATTGATAGAGTGTTCTCTCCACGGGATCCCCAGGCATGCAAGCTTGGCGTAATCATGGTCATAGCTGTTTCCT
DNA 2: AGGAAACAGCTATGACCATGATTACGCCAAGCTTGCATGCCTGGGGATCCCGTGGAGAGAACACTCTATCAATGATAGAGTCGTTATCAGTTCAAGGCTATTTCCCGGGAAATACACGTTGCGAATTCTGGCCGTCGTTTTACAACGTCGTGACTGGGAAAACCCTGGCG
- binding result (Noc (R89A)): binds
- binding result (Noc (N121S) [5]): binds
- binding signal (Noc [6]): ~6 fold BLI response vs no CTP

B3: 170 bp NBS DNA, BamHI-cut (open) (dsDNA)
DNA 1: CGCCAGGGTTTTCCCAGTCACGACGTTGTAAAACGACGGCCAGAATTCGCAACGTGTATTTCCCGGGAAATAGCCTTGAACTGATAACGACTCTATCATTGATAGAGTGTTCTCTCCACGG
DNA 2: GATCCCGTGGAGAGAACACTCTATCAATGATAGAGTCGTTATCAGTTCAAGGCTATTTCCCGGGAAATACACGTTGCGAATTCTGGCCGTCGTTTTACAACGTCGTGACTGGGAAAACCCTGGCG
- binding result (Noc [7]): binds

B4: 170 bp parS DNA, closed (dsDNA)
DNA 1: CGCCAGGGTTTTCCCAGTCACGACGTTGTAAAACGACGGCCAGAATTCGCAACGTGTGTTTCACGTGAAACAGCCTTGAACTGATAACGACTCTATCATTGATAGAGTGTTCTCTCCACGGGATCCCCAGGCATGCAAGCTTGGCGTAATCATGGTCATAGCTGTTTCCT
DNA 2: AGGAAACAGCTATGACCATGATTACGCCAAGCTTGCATGCCTGGGGATCCCGTGGAGAGAACACTCTATCAATGATAGAGTCGTTATCAGTTCAAGGCTGTTTCACGTGAAACACACGTTGCGAATTCTGGCCGTCGTTTTACAACGTCGTGACTGGGAAAACCCTGGCG
- binding result (Noc [8]): no binding
